In patent US12454527B2, “Conjugate monomethyl auristatin E to obtain a composition for treatment of prostate cancer” (priority 2019, dated 2025):
“And” between values parts separate entries of the source, which are not always exact repeats. Equal values may be shown once. “Also recorded” adds a separate entry of the source. Starred links: 1 amine or outer side, 2 acyl side, 3 side chain; linkers in the order of their positions; H or OH if unused. Non-standard residues stand in square brackets, D forms with d. Residues, ends and D or L forms follow the SMILES beside them. ξ: configuration not given here. *: point of attachment. GluureaLys(ε-3-ClBenzyl) = O=C(O)CC[C@H](NC(=O)N[C@@H](CCCCN(Cc1cccc(Cl)c1)*)C(=O)O)C(=O)O; Dolaproine = CO[C@@H]([C@@H]1CCCN1)[C@@H](C)C(=O)O; Dil = CC[C@H](C)[C@H](NC)[C@@H](CC(=O)O)OC; X1 = O=C(CCCc1cn(CCCN[*:1])nn1)[*:2]; PABC = O=C(OCc1ccc(N[*:1])cc1)[*:2]; X2 = C[C@@H](N*)[C@@H](O)c1ccccc1; Cit = NC(=O)NCCC[C@H](N)C(=O)O; Suc = O=C(CCC(=O)[*:2])[*:1]; NMeV = CN[C@H](C(=O)O)C(C)C; ξV = CC(C)C(N)C(=O)O; Ahx = NCCCCCC(=O)O

How the values were obtained:
Melanoma B16 = test: Antineoplastic activity on melanoma B16 model (tumor growth inhibition); type: in vivo; conditions: for Tumor volume, Mean / TGI %: B16, 1.0 mg/kg; for TGI %: vs TGC; for Tumor volume (individual tumors): s.c. B16 melanoma, 1.0 mg/kg i.p. x3, 1 mg/kg
Experimental: Melanoma B16-30 days after the first product administration (the product administration was started 48 hours after revaccination) and it was administered 3 times intraperitoneally in 5 days,
• 1. Group 1—diluent (placebo) • 2. Group 2—intraperitoneal Conjugate (I) administration in a dose of 1 mg/kg 3 times:
Experimental animals of control group (TGC) were administered with the diluent (DMSO+Haemodes) of similar Volume (placebo product). The measurement of tumor node was performed three times (on. Day 1, 4 and 8 after treatment completion), The antineoplastic activity was determined according to the standard parameters: tumor growth inhibition TGI (>50%). The survival observation was continued up to 30 days (Table 3).

[1] = Acute toxicity study, single intravenous administration, rats; type: in vivo; conditions: for Necropsy (per animal): day 14; for Necropsy (per animal) / Necropsy / Signs of intoxication / Body weight dynamics in % of initial body weight, Day 5 (individual animals) / Body weight dynamics in % of initial body weight, Day 10 (individual animals) / Body weight dynamics in % of initial body weight, Day 14 (individual animals): listed as test drug; for Body weight dynamics in % of initial body weight, Day 5, M ± SD / Body weight dynamics in % of initial body weight, Day 5 (individual animals) / Body weight dynamics in % of initial body weight, Day 10, M ± SD / Body weight dynamics in % of initial body weight, Day 10 (individual animals) / Body weight dynamics in % of initial body weight, Day 14, M ± SD / Body weight dynamics in % of initial body weight, Day 14 (individual animals): single administration; for Body weight dynamics in % of initial body weight, Day 5, M ± SD: Day 5, group mean; for Body weight dynamics in % of initial body weight, Day 10, M ± SD: Day 10, group mean; for Body weight dynamics in % of initial body weight, Day 14, M ± SD: Day 14, group mean
Text: Acute toxicity study of Conjugate (I) product on mice and rats.
• 1. Conjugate (I). • 2. Solubilizer Pluronic F127—in the amount, five-fold greater than the conjugate amount by weight. • 3. Diluent Haemodes infusion solution. • 4. Dimethyl sulfoxide—in the amount of 5% of the prepared volume.
The experiment took white outbred male mice aged about 2 months with body weight of 19-21,g, and also white outbred mature male rats aged about 2 months with body weight 190-210 g.
Acute toxicity study was performed within the intravenous administration. Before the start of the experiment to determine an acute toxicity, the animals were deprived of food and water (mice were deprived for 2 hours, rats—for 10-12 hours), and then weighed. Then each animal received the intravenous drug injection according to the study design, in a volume not exceeding the acceptable single injection volume: 0.5 mL for mice, 2 mL for rats, and fractionally if necessary. The control group of animals received Pluronic solution in Haemodes in the proportion used fort dose preparation of 78 mg/kg for mice and 38 mg/kg for rats. The duration of observation for laboratory animals was 14 days. During this period, visible signs of intoxication were assessed (see Table 9).

[2] = 3 mg/kg, group 11, males, 3 mg/kg
[3] = 4 mg/kg, group 12, males, 4 mg/kg

With `CC[C@H](C)[C@@H]([C@@H](CC(=O)N1CCC[C@H]1[C@H](OC)[C@@H](C)C(=O)N[C@H](C)[C@@H](O)c1ccccc1)OC)N(C)C(=O)[C@@H](NC(=O)[C@H](C(C)C)N(C)C(=O)OCc1ccc(NC(=O)[C@H](CCCNC(N)=O)NC(=O)C(NC(=O)CCCc2cn(CCCNC(=O)[C@H](Cc3ccc(O)cc3)NC(=O)[C@H](Cc3ccccc3)NC(=O)CCC(=O)NCCCCCC(=O)N(CCCC[C@H](NC(=O)N[C@@H](CCC(=O)O)C(=O)O)C(=O)O)Cc3cccc(Cl)c3)nn2)C(C)C)cc1)C(C)C` (stereo partly drawn) [Conjugate (I)] ({GluureaLys(ε-3-ClBenzyl)-Ahx-Suc}-FY[X1][ξV][Cit][PABC][NMeV]V[Dil][Dolaproine]-X2) as the compound, how does the “Tumor volume, Mean” value (Melanoma B16; day 1) read?
The value was 66 mm^3.

And the TGI % (Melanoma B16; day 1)?
Its TGI % is 75%.

And the “Tumor volume, Mean” value (Melanoma B16; day 4)?
Its value is 433 mm^3.

What about the TGI % (Melanoma B16; day 4) of the same compound?
The TGI % was 62%.

What about the “Tumor volume, Mean” value (Melanoma B16; day 8) of the same compound?
The value was 898 mm^3.

And the TGI % (Melanoma B16; day 8)?
The TGI % was 61%.

What about the “Tumor volume (individual tumors)” value (Melanoma B16; day 1 after treatment) of the same compound?
The value was 135 mm^3 and 72 mm^3 and 64 mm^3 (2×) and 48 mm^3 and 90 mm^3 and 36 mm^3 and 16 mm^3.

What about the “Tumor volume (individual tumors)” value (Melanoma B16; day 4) of the same compound?
The value was 768 mm^3 and 364 mm^3 and 476 mm^3 and 220 mm^3 and 544 mm^3 and 525 mm^3 and 120 mm^3 and 448 mm^3.

And the “Tumor volume (individual tumors)” value (Melanoma B16; day 8)?
Its value is 1,030 mm^3 and 855 mm^3 (2×) and 1,045 mm^3 and 675 mm^3 and 1,144 mm^3 and 972 mm^3 and 560 mm^3.

What about the “Body weight effect (summary)” value ([1]; male rats, all test doses) of the same compound?
Its value is “decreased growth rate or decreased body weight regarding the initial One”.

What about the Fatality ([1]; male rats, i.v. 4 mg/kg) of the same compound?
Its Fatality is 0.

And the Fatality ([1]; male rats, i.v. 4.5 mg/kg)?
Its Fatality is 3.

And the Fatality ([1]; male rats, i.v. 5 mg/kg)?
Its Fatality is 5.

What about the Fatality ([1]; male rats, i.v. 5.1 mg/kg) of the same compound?
The Fatality was 4.

What about the Fatality ([1]; male rats, i.v. 5.4 mg/kg) of the same compound?
The Fatality was 10.

What about the MTD at 14 days ([1]; male, white outbred, rat, in vivo, iv, rats, single i.v., read-out: Maximum tolerated dose) of the same compound?
Its MTD at 14 days is 4 mg/kg.

And the “Necropsy (per animal)” value ([1]; rats, 1 mg/kg i.v., 1 mg/kg)?
Its value is 1- NORMAL and 2- NORMAL and 3- light kidneys and 4- NORMAL and 5- NORMAL and 6- light kidneys, blurred pattern lines and 7- adrenals glands had hemorrhages, kidneys are and 8- light kidneys and 9- large spleen, granular kidneys and 10- kidneys with hemorrhages.

And the “Necropsy (per animal)” value ([1]; rats, 2 mg/kg i.v., 2 mg/kg)?
Its value is 1- very light kidneys, unclear pattern, large spleen and 2- light-brown kidneys, dark adrenal glands with and 3- light-brown kidneys with hemorrhages, kidney cut and 4- light-brown kidneys with hemorrhages, kidney cut and 5- kidneys are lighter than a standard and 6- kidneys are almost standard, dark and increased and 7- spotted liver, light kidneys, their structure is visible and 8- liver is lighter than a standard, light kidneys and 9- dark maroon pancreas, increased and bloody adrenal and 10- dark maroon pancreas, kidneys with hemorrhages,.

What about the “Necropsy (per animal)” value ([1]; rats, 3 mg/kg i.v., 3 mg/kg) of the same compound?
The value was 1- light kidneys with hemorrhages and 2- light kidneys with hemorrhages, blurred pattern and 3- light kidneys with hemorrhages and 5- standard kidneys and 6- kidneys with hemorrhages, clear cut pattern and 7- light, spotted, unevenly stained kidneys and 8- light kidneys and 9- light kidneys, increased adrenal glands, kidneys with and 10- kidneys with hemorrhages, dark and increased.

And the “Necropsy (per animal)” value ([1]; rats, 4 mg/kg i.v., 4 mg/kg)?
The value was 1- kidneys with hemorrhages, unclear pattern and 2- spotted kidneys with hemorrhages, clear pattern and 3- increased right adrenal gland, standard kidneys and 4- slightly increased adrenal glands, with hemorrhages, and 5- spotted kidneys with hemorrhages, clear pattern and 6- standard kidney color, blurred cut pattern, unclear and 7- kidney surface hemorrhages, visible pattern and 8- light kidneys with hemorrhage foci, unclear pattern of and 9- slightly increased, hyperemic adrenal glands, kidney and 10- standard kidneys.

And the Necropsy ([1]; rats, 4.5 mg/kg i.v., dead No. 4 and survivors day 14, 4.5 mg/kg)?
Its Necropsy is “increased and hyperemic kidneys; spotted, dark kidneys;; also recorded: Only rat No. 5 had Sight kidneys; also recorded: Others had standard ones”.

What about the Necropsy ([1]; rats, 5 mg/kg i.v., dead animals and survivors day 14, 5 mg/kg) of the same compound?
Its Necropsy is 2 - light brown kidneys with greenish shade, blurry cut and All rats had a large spleen.

What about the Necropsy ([1]; rats, 5.1 mg/kg i.v., survivors day 14, 5.1 mg/kg) of the same compound?
Its Necropsy is “One animal had increased adrenal glands, very light; also recorded: Others had standard ones”.

What about the “Toxic effect (summary)” value ([1]; rats, acute i.v.) of the same compound?
Its value is “diarrhea and the renal damage”.

What about the Signs of intoxication ([1]; rats, single i.v. 1 mg/kg, 1 mg/kg) of the same compound?
Its Signs of intoxication is “No diarrhea was observed on Day 5”.

What about the Signs of intoxication ([1]; rats, single i.v. 3 mg/kg, 3 mg/kg) of the same compound?
Its Signs of intoxication is “All animals experienced diarrhea on Day”.

And the Signs of intoxication ([1]; rats, single i.v. 4.5 mg/kg, 4.5 mg/kg)?
The Signs of intoxication was “Decreased mot. activity - 5-40 minutes; also recorded: Shortness of breath - 1-60 minutes; also recorded: diarrhea, cachexia, porphyria, decreased”.

And the Signs of intoxication ([1]; rats, single i.v. 5 mg/kg, 5 mg/kg)?
Its Signs of intoxication is “All animals developed diarrhea/cachexia”.

And the Signs of intoxication ([1]; rats, single i.v. 5.1 mg/kg, 5.1 mg/kg)?
Its Signs of intoxication is “Decreased mot. activity - 5-40 minutes; also recorded: Shortness of breath - 1-60 minutes; also recorded: Days 1-2 - all animals had diarrhea,; also recorded: Death cases occurred in 2 days (2), 4”.

And the Signs of intoxication ([1]; rats, single i.v. 5.4 mg/kg, 5.4 mg/kg)?
The Signs of intoxication was “Decreased mot. activity - 5-40 minutes; also recorded: Shortness of breath - 1-60 minutes; also recorded: Days 1-2 - all animals had diarrhea,; also recorded: No standard achieved; also recorded: Two animals had the hindlimb paresis”.

And the Signs of intoxication ([1]; rats, single i.v. 6 mg/kg, 6 mg/kg)?
The Signs of intoxication was “on Day 2 - all animals showed diarrhea”.

What about the Signs of intoxication ([1]; rats, single i.v. 8 mg/kg, 8 mg/kg) of the same compound?
The Signs of intoxication was “diarrhea, general starvation, adynamia”.

And the “Body weight dynamics in % of initial body weight, Day 5, M ± SD” value ([1]; 3 mg/kg, group 11, males)?
Its value is −0.2 ± 7.1%.

And the “Body weight dynamics in % of initial body weight, Day 5 (individual animals)” value [1, 2]?
Its value is −1.5% and −11.2% and −5.1% and 10.8% and −9.4% and 5.5% and 1.4% and −2.4% and 2.0% and 7.6%.

What about the “Body weight dynamics in % of initial body weight, Day 10, M ± SD” value ([1]; 3 mg/kg, group 11, males) of the same compound?
Its value is 17.2 ± 6.1%.

And the “Body weight dynamics in % of initial body weight, Day 10 (individual animals)” value [1, 2]?
Its value is 17.3% and 5.9% and 16.4% and 25.1% and 11.4% and 20.1% and 19.7% and 17.1% and 13.2% and 26.1%.

What about the “Body weight dynamics in % of initial body weight, Day 14, M ± SD” value ([1]; 3 mg/kg, group 11, males) of the same compound?
Its value is 22.8 ± 6.0%.

And the “Body weight dynamics in % of initial body weight, Day 14 (individual animals)” value [1, 2]?
The value was 20.8% and 10.1% and 20.0% and 29.1% and 16.8% and 27.1% and 26.4% and 23.8% and 24.9% and 29.4%.

And the “Body weight dynamics in % of initial body weight, Day 5, M ± SD” value ([1]; 4 mg/kg, group 12, males)?
The value was −7.7 ± 7.6%.

And the “Body weight dynamics in % of initial body weight, Day 5 (individual animals)” value [1, 3]?
Its value is 6.1% and −15.2% and −5.9% and 0.0% and −3.0% and −4.1% and −13.7% and −17.1% and −9.2% and −14.4%.

And the “Body weight dynamics in % of initial body weight, Day 10, M ± SD” value ([1]; 4 mg/kg, group 12, males)?
Its value is 11.0 ± 11.5%.

What about the “Body weight dynamics in % of initial body weight, Day 10 (individual animals)” value [1, 3] of the same compound?
The value was 25.5% and 2.5% and 16.3% (2×) and 22.2% and 19.1% and 5.9% and −10.5% and 14.5% and −1.9%.

And the “Body weight dynamics in % of initial body weight, Day 14, M ± SD” value ([1]; 4 mg/kg, group 12, males)?
The value was 20.1 ± 12.1%.

And the “Body weight dynamics in % of initial body weight, Day 14 (individual animals)” value [1, 3]?
The value was 35.2% and 11.7% and 24.6% and 31.7% and 28.1% (2×) and 18.0% and 1.0% (2×) and 21.7%.

What about the LD50 at 14 days ([1]; white outbred, rat, in vivo, iv, male rats, single i.v., read-out: LD50 (median lethal dose)) of the same compound?
Its LD50 at 14 days is 4.9 mg/kg.
